Experimental data: patent publication US20130090457A1 (Janssen / Centocor, published 2013)

Key:
cynomolgus TLR3 on cells = cynomolgus TLR3 on cells (cynomolgus, UniProt A0A2K5WT39 32-912); test: cell-based or functional assay
[1] = biological target: full-length murine TLR3 on cells (mouse, UniProt Q99MB1 26-905); test: cell-based or functional assay

Row | IC50 in the cyno ISRE reporter assay (cynomolgus TLR3 on cells) [µg/mL] | IC50 in the cyno NF-κB reporter assay (cynomolgus TLR3 on cells) [µg/mL] | IC50 in the ISRE reporter gene assay, murine TLR3-transfected HEK293T, poly(I:C) [1] [µg/mL] | Binder
1 | 1.74 | 4.18 |  | mAb 15EVQ (antibody, human IgG4 S228P, kappa, F234A L235A) heavy: not shown light: DIQMTQSPSSLSASVGDRVTITCRASQSIGLYLAWYQQKPGKAPKLLIYAASSLQSGVPSRFSGSGSGTDFTLTISSLQPEDFATYYCQQGNTLSYTFGQGTKVEIKRTVAAPSVFIFPPSDEQLKSGTASVVCLLNNFYPREAKVQWKVDNALQSGNSQESVTEQDSKDSTYSLSSTLTLSKADYEKHKVYACEVTHQGLSSPVTKSFNRGEC
2 |  |  | 22 | mAb 15 (antibody, human IgG4 S228P, kappa) heavy: not shown light: DIQMTQSPSSLSASVGDRVTITCRASQSIGLYLAWYQQKPGKAPKLLIYAASSLQSGVPSRFSGSGSGTDFTLTISSLQPEDFATYYCQQGNTLSYTFGQGTKVEIKRTVAAPSVFIFPPSDEQLKSGTASVVCLLNNFYPREAKVQWKVDNALQSGNSQESVTEQDSKDSTYSLSSTLTLSKADYEKHKVYACEVTHQGLSSPVTKSFNRGEC
3 |  |  | 0.5 | mAb 5429 (antibody, mouse IgG1, kappa, V domains shown) VH: EVQLVASGGGLVKPGASLKLSCVASGFTFSDYWMAWVRQTPGKPMEYIGDIKSDGSKVNYAPSLKNRFTISRDNARTTLYLQMSNVRSEDTATYYCNRDIGPDWYFDFWGPGTMVTVSS VL: DIQMTQSPTSLSASLGETVTIECRASEDIYNGLAWYQQKPGKSPQLLIYDSNSLHTGVPSRFSGRGSGTQYSLRINSLQSEDVASYFCQQYYDYPLTFGSGTKLEIKR
4 |  |  | 0.7 | mAb c1811 (antibody, mouse IgG1, kappa, V domains shown) VH: EVQLVASGGGLVKPGASLKLSCVASGFTFSDYWMAWVRQTPGKPMEYIGDIKSDGSKVNYAPSLKNRFTISRDNARTTLYLQMSNVRSEDTATYYCNRDIGPDWYFDFWGPGTMVTVSS VL: DIQMTQSPTSLSASLGETVTIECRASEDIYNGLAWYQQKPGKSPQLLIYDSNSLHTGVPSRFSGRGSGTQYSLRINSLQSEDVASYFCQQYYDYPLTFGSGTKLEIKR
